Measurements published in US20240301063A1 (SHANDONG NEW TIME PHARMACEUTICAL, published 2024).

How the values were obtained:
[1] = molecular target: T1, human BCMA on BCMA positive cells (human, UniProt Q02223 1-184); assay: cell-based or functional assay
T1 sequence (looked up): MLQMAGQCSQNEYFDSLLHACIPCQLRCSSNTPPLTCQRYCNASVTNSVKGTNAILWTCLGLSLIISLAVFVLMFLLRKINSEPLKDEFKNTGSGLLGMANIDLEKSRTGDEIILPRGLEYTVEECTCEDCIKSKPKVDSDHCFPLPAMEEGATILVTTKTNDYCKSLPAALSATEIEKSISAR

[2] = molecular target: T2, cynomolgus monkey CD3 on cynomolgus monkey T cells (cynomolgus monkey, UniProt Q95LI5 22-198; Q95LI8 22-171; Q95LI7 23-181); assay: flow cytometry on cynomolgus monkey T cells
T2 construct: Native CD3 on T cells
T2 sequence (Q95LI5 22-198 limits assumed, chain 1 of 3): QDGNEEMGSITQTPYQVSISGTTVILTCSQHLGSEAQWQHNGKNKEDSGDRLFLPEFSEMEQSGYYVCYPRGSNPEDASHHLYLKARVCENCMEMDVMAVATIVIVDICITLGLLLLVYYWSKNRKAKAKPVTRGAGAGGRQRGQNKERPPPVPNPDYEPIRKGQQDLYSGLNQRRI
T2 sequence (Q95LI8 22-171 limits assumed, chain 2 of 3): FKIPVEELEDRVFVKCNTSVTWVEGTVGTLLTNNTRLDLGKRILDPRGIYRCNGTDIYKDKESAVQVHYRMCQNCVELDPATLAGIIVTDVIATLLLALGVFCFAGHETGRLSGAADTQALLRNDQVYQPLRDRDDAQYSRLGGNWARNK
T2 sequence (Q95LI7 23-181 limits assumed, chain 3 of 3): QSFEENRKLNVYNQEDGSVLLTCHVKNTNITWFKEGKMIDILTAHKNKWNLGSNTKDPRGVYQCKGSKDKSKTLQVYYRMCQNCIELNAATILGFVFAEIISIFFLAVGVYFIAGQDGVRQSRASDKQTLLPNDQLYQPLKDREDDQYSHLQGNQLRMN
Protocol: Centrifuge to remove supernatant, wash the plate twice with 1% DPBS, add 100 μl 1% DPBS to each well for resuspension, and detect the signal intensity by flow cytometry.

B1: bispecific antibody AP163 (bispecific antibody)
chain: QVQLVQSGAEVKKPGSSVKVSCKASGGTFSNYWMHWVRQAPGQGLEWMGATYRGHSDTYYNQKFKGRVTITADKSTSTAYMELSSLRSEDTAVYYCARGAIYDGYDVLDNWGQGTLVTVSSGGGGSGGGGSGGGGSDIQMTQSPSSLSASVGDRVTITCSASQDISNYLNWYQQKPGKAPKLLIYYTSNLHSGVPSRFSGSGSGTDFTLTISSLQPEDFATYYCQQYRKLPWTFGQGTKLEIKGGGGGGSGGGGSGGGGSSSSSKAPPPSEVQLLESGGGLVQPGGSLKLSCAASGFTFNTYAMNWVRQAPGKGLEWVARIRSKYNNYATYYADSVKDRFTISRDDSKNTAYLQMNNLKTEDTAVYYCVRHGNFGNSYVSWFAYWGQGTLVTVSSGGGGSGGGGSGGGGSELVVTQEPSLTVSPGGTVTLTCRSSTGAVTTSNYANWVQQKPGQAPRGLIGGTNKRAPGTPARFSGSLLGGKAALTLSGVQPEDEAEYYCALWYSNLWVFGGGTKLTVLDKTHTCPPCPAPEAAGGPSVFLFPPKPKDQLMISRTPEVTCVVVDVSHEDPEVKFNWYVDGVEVHNAKTKPREEQYASTYRVVSVLTVLHQDWLNGKEYKCKVSNKALPASIEKTISKAKGQPREPQVYTLPPSRDELTKNQVSLTCLVKGFYPSDIAVEWESNGQPENNYKTTPPVLDSDGSFFLYSKLTVDKSRWQQGNVFSCSVLHEALHNHYTQKSLSLSPG
notes: human IgG1 Fc with L234A, L235A, T250Q, N297A, P331S, M428L and K447 deleted (EU); also called anti-BCMA×CD3 bispecific antibody
[1]
  EC50 of activation of NFAT-Jurkat reporter cells (luciferase) in the presence of H929 cells: 3.16 ng/mL
  EC50 of cynomolgus monkey T cells killing NCI-H929 tumor cells mediated by AP163: 0.278 pM
  EC50 of human T cells killing NCI-H929 tumor cells mediated by AP163: 0.239 pM
[2]
  binding result: binds
